The values that follow are results of earlier work, collected in US20250205311A1, “PHARMACEUTICAL COMPOSITIONS OF SEMAGLUTIDE AND THE METHODS OF USE THEREOF” (PENTIDE THERAPEUTICS LIMITED, priority 2022, published 2025).

For this data set the following is noted: oral tablet.

For the substance “N6,26-{18-[N-(17-carboxyheptadecanoyl)-L-glutamyl]-1 0-oxo-3,6, 12, 15-tetraoxa-9, 18-diazaoctadecanoyl}-[8-(2-amino-2-propanoic acid), 34-L-arginine] human glucagon-like peptide 1 (7-37) [semaglutide]”, the oral bioavailability is on record as 0.4-1%.
